This is an account of results in PMC10764958.

This data set addresses SARS2-NP WT (bacterial) (SARS-CoV-2, UniProt P0DTC9 1-419). Briefly: MST; MST: PBS with 0.05% Tween, room temperature; […]. The following applies: protein: recombinant; tags: 2xStrep (C-term); chain copies: 2.

B1: Cy5-RNA (SARS-CoV-2 RNA) (ssRNA)
RNA: CACUCGCUAUGUCGAUAACAACUUCUGUGGCCCUGAUGGCUACCCUCUUGAGUGCAUUAAAGA
Turning to B1, the binding result is recorded as “binds”.
